Measured values: patent publication US9644205B2, “Synthetic promoter for modulating gene expression” (The Regents of the University of California, priority 2012, dated 2017)

Assays:
[1] = system: HPDE cells; assay: CAT expression in HPDE cells (PDX-1 negative, PDX-1 co-transfection dose curve); assay type: cell-based, human
Method: FIG. 7 is a plot of the assay of the BL-CAT driving CAT expression in response to increasing doses of PDX-1 in human pancreatic ductal epithelial cells, which have very low expression of PDX-1.
FIG. 8 is a plot of another assay of the BL-CAT driving CAT expression in response to increasing doses of PDX-1 in human pancreatic ductal epithelial cells, which have very low expression of PDX-1.
(§1) In our methodological approach, activity and specificity of BLs were determined by CAT and mCherry assays in PDX-1+PC and HEK293 cell lines vs PDX-1—human pancreatic ductal epithelial (HPDE) cells. […] Cytotoxicity was determined by MTS assay. 1M PANC-1 cells were injected ip into 65 SCID mice; two weeks later, mice received BL1-vTK, RIP-vTK, CMV-vTK, or pVAX1 empty vector control (35 ug liposomal DNA/mouse/tail vein followed by two weeks of GCV (40 mg/kg, ip, bid; N=15/group). Glucose levels were measured on days 14 and 60 after treatment. Tumor volume was measured in each mouse. Statistical analysis was performed via paired T test; p<0.05=significant.

[2] = system: PANC-1; assay: relative CAT expression in PANC-1 cells; assay type: cell-based, human; conditions: PANC-1 (high PDX-1); compared to RIP and HIP 1400
Method: FIG. 4 is a plot of the assay of the relative CAT expression being driven by BL-1 promoter compared to RIP and HIP 1400 promoter constructs in human pancreas cancer cell line, PANC-1, which have high expression of PDX-1, and benign human pancreatic ductal epithelial cell line HPDE, which have no expression of PDX-1 and are a negative control cell line.
as §1

[3] = system: MIA PaCa2; assay: relative CAT expression in MIA PaCa2 vs MIA PaCa2 PDX-1 cells; assay type: cell-based, human; conditions: MIA PaCa2 (very low PDX-1) vs MIA PaCa2 stably transfected with PDX-1; compared to RIP and three HIP fragments
Text: FIG. 5 is a plot of the assay of the relative CAT expression being driven by BL-1 promoter compared to RIP and three HIP fragments in human pancreas cancer cell line, MIA PaCa2, which have very low PDX-1 expression vs MIA PaCa2 cells stably transfected with PDX-1.

[4] = system: Beta TC-6 cells; assay: CAT assay for promoter activity in Beta TC-6 cells; assay type: cell-based, mouse; conditions: compared to human insulin promoter fragments
Method: FIG. 2 is a plot of the CAT assay for HIP activity in Beta TC-6 cells.
FIG. 3 is a plot of the CAT assay for HIP promoter construct expression activity BL promoter construct expression activity in Beta TC-6 cells.
as §1

[5] = system: PDX-1 stably expressing PC and HEK cells; assay: CAT and mCherry reporter assays in PDX-1+ PC and HEK293 cell lines; assay type: cell-based, human
Method: as §1

[6] = system: human embryonic kidney cell line 293 stably transfected with PDX-1 or mutated PDX-1 P47D; assay: relative CAT expression in 293 PDX-1 vs 293 P47D cells; assay type: cell-based; conditions: 293 stably transfected with PDX-1 or PDX-1 P47D; compared to RIP and three HIP fragments
Text: FIG. 6 is a plot of the assay of the relative CAT expression being driven by BL-1 promoter compared to RIP and three HIP fragments in human embryonic kidney cell line 293, (which have no PDX-1 expression), stably transfected with PDX-1 or mutated PDX-1 P47D.

B1: BL-1: synthetic 550 bp promoter, SEQ ID NO: 1; three repeated C2/E2/G2/A3/CRE1 and three repeated GG2/A2/C1/E1/A1 motifs (nucleic acid)
DNA: GACAGCAGCGCAAAGAGCCCCGCCCTGCAGCCTCCAGCTCTCCTGGTCTAATGTGGAAAGTGGCCCAGGTGAGGGCTTTGCTCTCCTGGAGACATTTGCCCCCAGCTGTGAGCAGGGACAGGTCTGGCCACCGGGCCCCTGGTTAAGACTCTAATGACCCGCTGGTCCCAGGGACAGGTCTGGCCACCGGGCCCCTGGTTAAGACTCTAATGACCCGCTGGTCCCAGGGACAGGTCTGGCCACCGGGCCCCTGGTTAAGACTCTAATGACCCGCTGGTCCGGAAATGGTCCGGAAATTGCAGCCTCAGCCCCCAGCCATCTGCCGACCCCCCCACCCCAGGCCCTAATGGGCGGAAATGGTCCGGAAATTGCAGCCTCAGCCCCCAGCCATCTGCCGACCCCCCCACCCCAGGCCCTAATGGGCGGAAATGGTCCGGAAATTGCAGCCTCAGCCCCCAGCCATCTGCCGACCCCCCCACCCCAGGCCCTAATGGGCGGTAGGGGAGATGGGCTCTGAGACTATAAAGCCAGCGGGGGCCCAGCAGCCCTC
[1]; HPDE cells, co-transfection of PDX-1
  CAT expression in response to increasing doses of PDX-1: dose dependent manner
[1]; PDX-1-negative cell lines
  CAT expression: No CAT expression was detected
[2]
  relative CAT expression: to a far greater degree than HIP and RIP
[3]
  relative CAT expression: more effective than RIP or HIP
[4]
  expression of CAT: equal to or better than human insulin promoter fragments
[5]; among the BL promoters, CAT and mCherry assays
  activity of expressing reporter genes: highest activity
[5]; vs CMV-driven expression
  CAT and mCherry reporter expression: equal to CMV-driven expression
[5]; vs RIP-driven expression, p<0.05
  CAT and mCherry reporter expression: significantly greater than RIP-driven expression
[6]
  relative CAT expression: far more effective than RIP or HIP
